Measured values taken from patent publication US20240076371A1, “COMPOSITIONS AND METHODS FOR TREATING OSTEOARTHRITIS, RHEUMATOID ARTHRITIS, AND JOINT AND TENDON DISORDERS” (BOARD OF REGENTS, THE UNIVERSITY OF TEXAS SYSTEM, priority 2021, published 2024).

Columns and labels:
[1] = molecular target: T1, Cx43 hemichannels in mouse macrophage RAW264.7 cells (Mus musculus, UniProt P23242); assay: EtBr dye uptake assay in LPS-treated RAW264.7 cells; format: cell-based
T1 construct: endogenous in cells; host or cells: RAW264.7 (mouse macrophage), LPS-treated
T1 sequence (P23242 whole entry): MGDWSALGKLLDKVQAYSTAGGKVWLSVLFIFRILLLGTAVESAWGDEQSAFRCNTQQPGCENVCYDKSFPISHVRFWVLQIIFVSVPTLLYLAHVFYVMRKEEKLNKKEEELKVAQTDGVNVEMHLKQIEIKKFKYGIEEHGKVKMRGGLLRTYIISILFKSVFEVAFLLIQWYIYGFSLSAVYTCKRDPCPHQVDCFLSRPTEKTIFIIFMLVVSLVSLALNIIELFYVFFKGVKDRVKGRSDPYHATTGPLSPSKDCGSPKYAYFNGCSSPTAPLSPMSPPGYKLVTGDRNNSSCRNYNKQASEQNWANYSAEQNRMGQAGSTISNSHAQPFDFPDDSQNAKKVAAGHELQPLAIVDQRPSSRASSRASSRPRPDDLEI
Procedure: (§1) Dye uptake assay. Cells were incubated with a mixture of 0.1 mM ethidium bromide (EtBr, MW 394 Da) and 1 mg/ml FITC-dextran (MW 10 kDa) for 5 minutes. EtBr was used as a tracer to detect hemichannel activity, and FITC-dextran, which is too large to pass through hemichannels but is taken up by dying cells, was used as a negative control. Cells were then rinsed five times with PBS, followed by fixing with 2% paraformaldehyde for 10 minutes. At least six microphotographs of fluorescence fields were captured under a 20× fluorescent microscope (Keyence, BZ-X710, Osaka, Japan). For each image, the average intensity of EtBr fluorescence was measured and quantified from at least 30 random cells using ImageJ software (NIH, Bethesda, USA). […]
(§2) Anti-Cx43 hemichannel antibody (M1 antibody) blocked Cx43 hemichannel opening and inflammatory gene expression in RAW264.7 and SW982 cells. […] The activity of Cx43 hemichannels was determined using EtBr dye uptake assay. […] Next, MMP3/13, Cyclooxygenase 2 (COX2), ADAM metallopeptidase with thrombospondin type 1 motif 4 (Adamts4), and IL6 gene expression was determined with or without Cx43E2 antibody after LPS treatment of RAW264.7 cells (FIG. 18). […] In addition, MMP3/13, COX2, Adamts4/5, and Nitric Oxide Synthase 2 (NOS2) gene expression was evaluated in IL1β-treated SW982 cells (FIG. 19).

[2] = molecular target: T2, Cx43 hemichannels in human synovial fibroblast SW982 cells (Homo sapiens, UniProt P17302); assay: EtBr dye uptake assay in IL1β-treated SW982 cells; format: cell-based
T2 construct: endogenous in cells; host or cells: SW982 (human synovial fibroblast), IL1β-treated
T2 sequence (P17302 whole entry): as the sequence (P23242 whole entry) above, with E124D, V164I, R243K, T251S, P253A, S257A, P263Q, S341N, A344S, V347L counted along it
Procedure: as §1, §2

[3] = molecular target: T3, Connexin 43 (Cx43) hemichannel, mouse (mouse, UniProt P23242 2-382); assay: in vivo binding after i.p. injection; frozen knee sections stained with Alexa Fluor 594 anti-human IgG
T3 construct: whole, on cells; also called Cx43 HCs
T3 sequence (P23242 2-382): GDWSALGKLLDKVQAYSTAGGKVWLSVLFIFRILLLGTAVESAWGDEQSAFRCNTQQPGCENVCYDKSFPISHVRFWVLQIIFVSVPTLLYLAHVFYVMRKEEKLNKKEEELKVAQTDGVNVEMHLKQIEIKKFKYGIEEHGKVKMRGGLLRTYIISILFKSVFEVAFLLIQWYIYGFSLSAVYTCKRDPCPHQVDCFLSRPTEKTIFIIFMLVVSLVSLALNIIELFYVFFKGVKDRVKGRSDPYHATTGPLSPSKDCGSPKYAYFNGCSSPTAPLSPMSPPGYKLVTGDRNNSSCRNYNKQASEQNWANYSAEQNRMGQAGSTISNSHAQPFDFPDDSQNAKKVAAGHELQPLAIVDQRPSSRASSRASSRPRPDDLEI
Procedure: M1 antibody binds to synovium and inhibits hemichannel opening in OA. Due to the dense nature of cartilage and large size of antibodies, a widely held perception is that antibodies are unable to penetrate the cartilage matrix. To determine the antibody binding pattern in the knee joint region, M1 antibody (25 mg/kg) with human IgG epitope or saline was intraperitoneally (i.p.) injected at 30 mins after DMM surgery. As shown in the diagram (FIG. 8A), mice were euthanized and perfused before isolation of hindlimbs at one or two weeks after injection. Frozen tissue sections were prepared and immuno-labeled with Alexa Fluor 594-conjugated anti-human IgG secondary antibody. The signal was detectable at both one and two weeks after antibody administration, with the antibody binding site primarily localized in the synovium region (FIG. 8B). The synovium of joints comprises macrophage-like type A cells, which are responsible for phagocytosing synovial fluid, and fibroblast-like type B cells, which produce hyaluronic acid and mucin to nourish and mechanically protect, respectively, the underlying articular cartilage (Donahue H J, et al. Nature reviews Rheumatology. 2017; 14(1):42-51). Then the sections were immuno-labeled with the macrophage marker CD68, and the M1 antibody was co-localized with CD68 in the synovium region (FIG. 9). […]

[4] = system: IL1β-induced inflammatory gene expression in SW982 cells; assay: qRT-PCR of IL1β-induced inflammatory gene expression in SW982 cells; format: cell-based, human; settings: pre-incubated 30 min, 1 ng/ml IL1β for 14 hrs
Procedure: Human synovial fibroblast SW982 cells were pre-incubated with or without the Cx43E2 antibody for 30 min followed by incubation with 1 ng/ml IL1β for 14 hrs. RNA extracts were prepared and subjected to qRT-PCR analysis for COX2, Adamts4/5, MMP3/13 and NOS2 mRNA expression. *P<0.05, **P<0.01.
(§3) RNA isolation and real-time PCR. Total RNA was isolated from RAW264.7 and SW982 cells using TRI Reagent (Molecular Research Center, Cincinnati, USA) according to the manufacturer's instructions. After RNA quantification by Nanodrop 2000, cDNA was synthesized from 1 μg of total RNA using the high-capacity RNA-to-cDNA kit (Thermo Fisher Scientific, Waltham, USA). […]
as §2

[5] = system: LPS-induced inflammatory gene expression in RAW264.7 cells; assay: qRT-PCR of LPS-induced inflammatory gene expression in RAW264.7 cells; format: cell-based, mouse; settings: pre-incubated 30 min, 0.1 μg/ml LPS for 4 hrs
Procedure: Mouse macrophage RAW264.7 cells were pre-incubated with or without the Cx43E2 antibody for 30 min followed by incubation with 0.1 μg/ml LPS for 4 hrs. RNA extracts were prepared and subjected to qRT-PCR analysis for COX2, Adamts4, MMP3/13 and IL6 mRNA expression. *P<0.05, **P<0.01.
as §3, §2

CC1(C)[C@@H](OC(=O)CCC(=O)O)CC[C@]2(C)[C@H]3C(=O)C=C4[C@@H]5C[C@@](C)(C(=O)O)CC[C@]5(C)CC[C@@]4(C)[C@]3(C)CC[C@@H]12 [carbenoxolone, reference compound]
LPS-induced increase of Cx43 hemichannel opening (EtBr dye uptake) ([1]; CBX 100 μM): abolished | IL1β-induced increase of Cx43 hemichannel opening (EtBr dye uptake) ([2]; CBX 100 μM): abolished

B1: M1 antibody (anti-Cx43 hemichannel blocking antibody) (antibody, V domains shown)
VH: EVQLQQPGAELVKPGASVKLSCKASGYTFTSYYMYWVKQRPGQGLEWIGGINPSNGGTNFNEKFKNKATLTVDKSSSTAYMQLSSLTSEDSAVYYCTREGNPYYTMNYWGQGTSVTVSS
VL: DIVMTQSPSSLSVSAGEKVTMSCKSSQSLLNSGNQKTYLAWYQQKPGQPPKLLIYGASTRESGVPDRFTGSGSGTDFTLTISSVQAEDLAVYYCQNDHSYPFTFGSGTKLEIK
notes: also called HmAb1; anti-Cx43 hemichannel antibody
binding result [3]: binds

B2: Cx43E2 blocking antibody: Cx43 hemichannel blocking antibody used in RAW264.7 and SW982 cells; headings and legends call it anti-Cx43 hemichannel antibody (M1 antibody) (antibody, V domains shown)
VH: EVQLQQPGAELVKPGASVKLSCKASGYTFTSYYMYWVKQRPGQGLEWIGGINPSNGGTNFNEKFKNKATLTVDKSSSTAYMQLSSLTSEDSAVYYCTREGNPYYTMNYWGQGTSVTVSS
VL: DIVMTQSPSSLSVSAGEKVTMSCKSSQSLLNSGNQKTYLAWYQQKPGQPPKLLIYGASTRESGVPDRFTGSGSGTDFTLTISSVQAEDLAVYYCQNDHSYPFTFGSGTKLEIK
LPS-induced increase of Cx43 hemichannel opening (EtBr dye uptake) ([1]; antibody 2 μg/ml): abolished | IL1β-induced increase of Cx43 hemichannel opening (EtBr dye uptake) ([2]; antibody 2 μg/ml): abolished | MMP3/13, COX2, Adamts4/5 and NOS2 gene expression after IL1β treatment [4]: significantly reduced | LPS-induced up-regulation of MMP3/13, COX2, Adamts4 and IL6 gene expression [5]: markedly decreased
